From PMC9546846

Key:
N-cadherin = N-cadherin (UniProt P15116); conditions: cited from earlier work
[1] = target: ddFP-B1-inserted NCad (NCad-B1) (mouse) (UniProt P15116); assay: split reporter (BiFC, NanoBiT); dimerization-dependent fluorescent protein; time-lapse of HEK293T cells each expressing one component, from seeding for 120 min, then 10 mM EGTA for 120 min; washout of EGTA in a further experiment
[2] = target: ddFP-B3-inserted NCad (NCad-B3) (mouse) (UniProt P15116); assay: as above
[3] = target: ddFP-B1-inserted NCad (NCad-B1) (mouse) (UniProt P15116); assay: split reporter (BiFC, NanoBiT); dimerization-dependent fluorescent protein; HEK293T cells co-expressing both components (mCherry-NLS) co-cultured with cells expressing NCad without fluorescent protein (EBFP2-NLS); signal at R-R against B-R cell adhesion sites
[4] = target: ddFP-B3-inserted NCad (NCad-B3) (mouse) (UniProt P15116); assay: as above

Chain of N-cadherin (P15116 160-724): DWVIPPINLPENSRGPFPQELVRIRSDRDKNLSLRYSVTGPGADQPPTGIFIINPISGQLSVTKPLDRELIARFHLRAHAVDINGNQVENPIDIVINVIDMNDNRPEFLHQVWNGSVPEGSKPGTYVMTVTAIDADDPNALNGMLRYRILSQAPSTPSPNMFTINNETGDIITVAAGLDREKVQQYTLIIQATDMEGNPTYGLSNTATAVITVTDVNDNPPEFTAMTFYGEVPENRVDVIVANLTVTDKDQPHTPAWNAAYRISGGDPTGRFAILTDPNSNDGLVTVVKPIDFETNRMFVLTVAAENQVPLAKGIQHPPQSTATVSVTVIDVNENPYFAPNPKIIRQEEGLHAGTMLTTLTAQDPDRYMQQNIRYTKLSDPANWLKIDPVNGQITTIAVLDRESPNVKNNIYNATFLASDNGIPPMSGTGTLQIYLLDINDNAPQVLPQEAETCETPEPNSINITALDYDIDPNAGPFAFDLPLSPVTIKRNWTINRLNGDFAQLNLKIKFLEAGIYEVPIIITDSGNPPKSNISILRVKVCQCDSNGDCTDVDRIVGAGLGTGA

Substance	Kd (N-cadherin)	time to 50% of the signal after addition of 10 mM EGTA [1]	time to 50% of the signal after addition of 10 mM EGTA [2]	contrast of signal between R-R and B-R cell adhesion sites [3]	contrast of signal between R-R and B-R cell adhesion sites [4]
N-cadherin (from UniProt P15116)	25 µM				
ddGFP-A-inserted NCad (NCad-GA) (from UniProt P15116 26-311; P15116 312-906)		50 min	50 min	5.31	7.72
